{"source": "patent US20240352134A1", "about": "(NANJING IMMUNOPHAGE BIOTECH, published 2024)", "binders": {"B1": {"name": "3F11hz4 (antibody, V domains shown)", "VH": "EVQLVESGGGLVQPGGSLKLSCAASGFSFNTYAMNWVRQASGKGLEWVGRIRSKSNYYATYYAASVKGRFTISRDDSKSTLYLQMNSLKTEDTAVYYCVRGRELGDYYAMDYWGQGTLVTVSS", "VL": "DIVMTQSPLSLPVTPGEPASISCRSSKSLLHSNGNTYLYWFLQKPGQSPQLLIYRMSNLASGVPDRFSGSGSGTDFTLKISRVEAEDVGVYYCMQHLEYPFTFGQGTKLEIK", "notes": "Humanized variant of 3F11; also called humanized 3F11hz4 antibody"}}, "key": {"human CCR8 [1]": {"target": "T1, human CCR8 (human, UniProt P51685 1-355)", "T1 construct": "whole, on cells; also called hCCR8; C-C Motif Chemokine Receptor 8", "assay": "FACS as in Example 2; antibody after 40° C. 4 W; ratio to T0"}, "human CCR8 [2]": {"target": "T1, human CCR8", "assay": "FACS as in Example 2; T0 (the reference itself)"}, "human CCR8 [3]": {"target": "T1, human CCR8", "assay": "cell-based or functional assay"}, "human CCR8 [4]": {"target": "T1, human CCR8", "assay": "FACS on human CCR8-expressing 293F cells"}, "human CCR8 [5]": {"target": "T1, human CCR8", "assay": "FACS as in Example 2; antibody after 40° C. 1 W; ratio to T0"}, "hCCR8(V104A)": {"target": "T2, hCCR8(V104A) (human, UniProt P51685 1-355)", "T2 construct": "whole, on cells", "T2 sequence (P51685 whole entry V104A)": "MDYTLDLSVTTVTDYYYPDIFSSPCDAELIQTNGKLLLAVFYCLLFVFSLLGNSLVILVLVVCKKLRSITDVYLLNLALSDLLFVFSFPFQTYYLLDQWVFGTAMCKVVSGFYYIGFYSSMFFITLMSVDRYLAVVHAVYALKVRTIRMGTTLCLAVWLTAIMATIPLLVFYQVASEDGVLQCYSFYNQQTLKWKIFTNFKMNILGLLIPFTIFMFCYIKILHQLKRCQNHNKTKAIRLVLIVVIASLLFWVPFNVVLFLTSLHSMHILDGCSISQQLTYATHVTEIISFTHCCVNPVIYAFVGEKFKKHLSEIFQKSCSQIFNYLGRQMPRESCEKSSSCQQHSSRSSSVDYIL", "assay": "flow cytometry on 293F cells transiently expressing the mutant; column 'Inhibition EC50 (nM)'", "description": "(§1) Human, rat, dog, mouse and cynomolgus CCR8 sequence were analysis. The result was shown that ECD2 regions of human, rat, dog, mouse and cynomolgus CCR8 were similar (Table 10). […] After reacting at 4° C. for 1 hour, it was reacted with Alexa Fluor 488 affinpure goat anti-human Ig(H+L) (Jackson, 109-545-003) and flow cytometry analysis was performed. The highest MFI of serially dilution is supposed as 100%, the inhibition percent was calculated according to the following formula."}, "hCCR8(M105A)": {"target": "T3, hCCR8(M105A) (human, UniProt P51685 1-355)", "T3 construct": "whole, on cells", "T3 sequence (P51685 whole entry M105A)": "as the sequence (P51685 whole entry V104A) above, with A104V, M105A counted along it", "assay": "flow cytometry on 293F cells transiently expressing the mutant; column 'Inhibition EC50 (nM)'", "description": "as §1"}, "hCCR8(D97A)": {"target": "T4, hCCR8(D97A) (human, UniProt P51685 1-355)", "T4 construct": "whole, on cells; also called mutant of 97 aa in CCR8", "T4 sequence (P51685 whole entry D97A)": "as the sequence (P51685 whole entry V104A) above, with D97A, A104V counted along it", "assay": "flow cytometry on 293F cells transiently expressing the mutant; column 'Inhibition EC50 (nM)'", "description": "as §1"}, "hCCR8(V100A)": {"target": "T5, hCCR8(V100A) (human, UniProt P51685 1-355)", "T5 construct": "whole, on cells", "T5 sequence (P51685 whole entry V100A)": "as the sequence (P51685 whole entry V104A) above, with V100A, A104V counted along it", "assay": "flow cytometry on 293F cells transiently expressing the mutant; column 'Inhibition EC50 (nM)'", "description": "as §1"}, "hCCR8(K107A)": {"target": "T6, hCCR8(K107A) (human, UniProt P51685 1-355)", "T6 construct": "whole, on cells", "T6 sequence (P51685 whole entry K107A)": "as the sequence (P51685 whole entry V104A) above, with A104V, K107A counted along it", "assay": "flow cytometry on 293F cells transiently expressing the mutant; column 'Inhibition EC50 (nM)'", "description": "as §1"}, "hCCR8(Q98A)": {"target": "T7, hCCR8(Q98A) (human, UniProt P51685 1-355)", "T7 construct": "whole, on cells", "T7 sequence (P51685 whole entry Q98A)": "as the sequence (P51685 whole entry V104A) above, with Q98A, A104V counted along it", "assay": "flow cytometry on 293F cells transiently expressing the mutant; column 'Inhibition EC50 (nM)'", "description": "as §1"}, "hCCR8(L96A)": {"target": "T8, hCCR8(L96A) (human, UniProt P51685 1-355)", "T8 construct": "whole, on cells", "T8 sequence (P51685 whole entry L96A)": "as the sequence (P51685 whole entry V104A) above, with L96A, A104V counted along it", "assay": "flow cytometry on 293F cells transiently expressing the mutant; column 'Inhibition EC50 (nM)'", "description": "as §1"}, "hCCR8(L95A)": {"target": "T9, hCCR8(L95A) (human, UniProt P51685 1-355)", "T9 construct": "whole, on cells", "T9 sequence (P51685 whole entry L95A)": "as the sequence (P51685 whole entry V104A) above, with L95A, A104V counted along it", "assay": "flow cytometry on 293F cells transiently expressing the mutant; column 'Inhibition EC50 (nM)'", "description": "as §1"}, "hCCR8(Y94A)": {"target": "T10, hCCR8(Y94A) (human, UniProt P51685 1-355)", "T10 construct": "whole, on cells", "T10 sequence (P51685 whole entry Y94A)": "as the sequence (P51685 whole entry V104A) above, with Y94A, A104V counted along it", "assay": "flow cytometry on 293F cells transiently expressing the mutant; column 'Inhibition EC50 (nM)'", "description": "as §1"}, "hCCR8(T103A)": {"target": "T11, hCCR8(T103A) (human, UniProt P51685 1-355)", "T11 construct": "whole, on cells", "T11 sequence (P51685 whole entry T103A)": "as the sequence (P51685 whole entry V104A) above, with T103A, A104V counted along it", "assay": "flow cytometry on 293F cells transiently expressing the mutant; column 'Inhibition EC50 (nM)'", "description": "as §1"}, "human CCR8 [6]": {"target": "T1, human CCR8", "assay": "binding affinity EC50, comparison of Table 12 (FACS on CCR8-expressing cells)"}, "human CCR8 [7]": {"target": "T1, human CCR8", "assay": "FACS as in Example 2; antibody after Oxidation 24 h; ratio to T0"}, "human CCR8 [8]": {"target": "T1, human CCR8", "assay": "FACS as in Example 2; antibody after 40° C. 2 W; ratio to T0"}, "human CCR8 [9]": {"target": "T1, human CCR8", "assay": "FACS as in Example 2; antibody after Freeze/thaw 5FT; ratio to T0"}, "human CX3CR1": {"target": "T12, human CX3CR1 (human, UniProt P49238 1-355)", "T12 construct": "whole, on cells; also called hCX3CR1", "T12 sequence (looked up)": "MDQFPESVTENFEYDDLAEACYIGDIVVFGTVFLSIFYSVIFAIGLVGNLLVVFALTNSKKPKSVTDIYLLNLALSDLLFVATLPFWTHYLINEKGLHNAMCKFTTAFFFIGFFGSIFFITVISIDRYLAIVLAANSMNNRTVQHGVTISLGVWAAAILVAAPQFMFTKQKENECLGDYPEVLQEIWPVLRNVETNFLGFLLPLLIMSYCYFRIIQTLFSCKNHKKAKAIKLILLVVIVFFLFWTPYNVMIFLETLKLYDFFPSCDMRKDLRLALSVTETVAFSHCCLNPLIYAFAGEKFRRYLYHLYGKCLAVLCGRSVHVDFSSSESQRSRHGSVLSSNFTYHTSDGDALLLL", "assay": "flow cytometry on 293F cells expressing human CX3CR1; 14 dilutions by 3-fold from 25 µg/mL", "description": "(§2) 3F11hz4 humanized antibody was tested for binding to CCR4 and CX3CR1 overexpressing cells by flow cytometry. […] After reacting at 4° C. for 1 hour, it was reacted with Alexa Fluor 488 affinipure goat anti-human Ig(H+L) (Jackson, 109-545-003) and flow cytometry analysis was performed."}, "human CCR8 [10]": {"target": "T1, human CCR8", "assay": "cell-based or functional assay", "remark": "listed apart in the source"}, "human CCR4": {"target": "T13, human CCR4 (human, UniProt P51679 1-360)", "T13 construct": "whole, on cells; also called hCCR4", "T13 sequence (looked up)": "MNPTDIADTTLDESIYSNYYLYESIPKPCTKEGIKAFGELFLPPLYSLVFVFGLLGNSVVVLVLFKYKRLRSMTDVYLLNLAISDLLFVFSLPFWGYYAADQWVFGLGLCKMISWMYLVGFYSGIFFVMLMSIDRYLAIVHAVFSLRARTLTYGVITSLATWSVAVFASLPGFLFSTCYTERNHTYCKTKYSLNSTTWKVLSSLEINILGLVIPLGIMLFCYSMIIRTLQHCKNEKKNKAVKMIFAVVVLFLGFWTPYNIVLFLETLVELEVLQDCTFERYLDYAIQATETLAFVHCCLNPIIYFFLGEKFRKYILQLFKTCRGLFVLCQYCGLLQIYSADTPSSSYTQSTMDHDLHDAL", "assay": "flow cytometry on 293F cells expressing human CCR4; 14 dilutions by 3-fold from 25 µg/mL", "description": "as §2"}, "human CCR8 [11]": {"target": "T1, human CCR8", "assay": "flow cytometry on 293F cells expressing hCCR8; column 'Inhibition EC50 (nM)'", "description": "as §1"}}, "data": [{"binder": "B1", "values": [{"measurement": "Affinity EC50 (nM) Ratio", "setting": "human CCR8 [1]", "value": 1.35}, {"measurement": "Affinity EC50 (nM) Ratio", "setting": "human CCR8 [2]", "value": 1}, {"measurement": "Calcium mobilization IC50", "setting": "human CCR8 [3]", "value": 4, "unit": "nM"}, {"measurement": "EC50", "setting": "human CCR8 [4]", "value": 0.194, "unit": "nM"}, {"measurement": "Affinity EC50 (nM) Ratio", "setting": "human CCR8 [5]", "value": 1.34}, {"measurement": "EC50", "setting": "hCCR8(V104A)", "value": 0.341, "unit": "nM"}, {"measurement": "EC50", "setting": "hCCR8(M105A)", "value": 0.334, "unit": "nM"}, {"measurement": "EC50", "setting": "hCCR8(D97A)", "value": 24, "unit": "nM"}, {"measurement": "EC50", "setting": "hCCR8(V100A)", "value": 0.237, "unit": "nM"}, {"measurement": "EC50", "setting": "hCCR8(K107A)", "value": 0.22, "unit": "nM"}, {"measurement": "EC50", "setting": "hCCR8(Q98A)", "value": 0.194, "unit": "nM"}, {"measurement": "EC50", "setting": "hCCR8(L96A)", "value": 0.28, "unit": "nM"}, {"measurement": "EC50", "setting": "hCCR8(L95A)", "value": 0.459, "unit": "nM"}, {"measurement": "EC50", "setting": "hCCR8(Y94A)", "value": 0.306, "unit": "nM"}, {"measurement": "EC50", "setting": "hCCR8(T103A)", "value": 0.311, "unit": "nM"}, {"measurement": "EC50", "setting": "human CCR8 [6]", "value": 0.19, "unit": "nM"}, {"measurement": "Affinity EC50 (nM) Ratio", "setting": "human CCR8 [7]", "value": 1.36}, {"measurement": "Affinity EC50 (nM) Ratio", "setting": "human CCR8 [8]", "value": 1.27}, {"measurement": "Affinity EC50 (nM) Ratio", "setting": "human CCR8 [9]", "value": 1.22}, {"measurement": "binding result", "setting": "human CX3CR1", "value": "no binding (tested: 25 µg/mL)"}, {"measurement": "Calcium mobilization IC50 (nM) Ratio; 40° C. 1 W", "setting": "human CCR8 [10]", "value": 1.31}, {"measurement": "Calcium mobilization IC50 (nM) Ratio; 40° C. 2 W", "setting": "human CCR8 [10]", "value": 1.03}, {"measurement": "Calcium mobilization IC50 (nM) Ratio; 40° C. 4 W", "setting": "human CCR8 [10]", "value": 2.22}, {"measurement": "Calcium mobilization IC50 (nM) Ratio; Freeze/thaw 5FT", "setting": "human CCR8 [10]", "value": 1.5}, {"measurement": "Calcium mobilization IC50 (nM) Ratio; Oxidation 24 h", "setting": "human CCR8 [10]", "value": 1.63}, {"measurement": "Calcium mobilization IC50 (nM) Ratio; T0", "setting": "human CCR8 [10]", "value": 1}, {"measurement": "binding result", "setting": "human CCR4", "value": "no binding (tested: 25 µg/mL)"}, {"measurement": "EC50", "setting": "human CCR8 [11]", "value": 0.234, "unit": "nM"}]}]}
